Here are results for 24 molecules from US20230279128A1 (SYNTHEKINE, published 2023).

The target of test [1] is T1, extracellular domain of mIFNgR2 (mouse).
T1 construct: also called mIFNgR2 ECD; mouse IFNgR2 extracellular domain
T1 chain: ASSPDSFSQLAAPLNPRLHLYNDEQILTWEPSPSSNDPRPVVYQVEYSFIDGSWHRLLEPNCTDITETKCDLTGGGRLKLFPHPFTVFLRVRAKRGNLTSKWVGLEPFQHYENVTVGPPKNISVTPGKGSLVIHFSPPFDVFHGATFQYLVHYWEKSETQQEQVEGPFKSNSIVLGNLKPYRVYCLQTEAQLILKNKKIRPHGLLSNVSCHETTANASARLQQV
The experiment in a line: flow cytometry, cross-reactivity. In general terms: A flow cytometer gives signals particle by particle.

For test [2], the target named is T2, extracellular domain of hIFNgR2 (human, UniProt P38484 28-247).
T2 construct: also called hIFNgR2 ECD; hIFNgR2-ECD
T2 sequence: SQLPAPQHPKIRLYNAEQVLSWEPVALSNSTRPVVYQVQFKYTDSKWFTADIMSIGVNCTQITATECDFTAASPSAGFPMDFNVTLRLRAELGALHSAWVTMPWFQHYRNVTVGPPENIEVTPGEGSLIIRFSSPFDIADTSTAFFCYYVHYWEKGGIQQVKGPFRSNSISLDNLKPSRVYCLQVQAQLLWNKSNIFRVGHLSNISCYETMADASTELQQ
The experiment in a line: phage biopanning and periplasmic extract ELISA (PE-ELISA). As for the experimental part:
Upon completion of the biopanning of Example 3, three 96-well plates of individual phage clones were isolated in order to perform periplasmic extract ELISA (PE-ELISA) on IFNgR2 coated plates to identify positive VHH binders that selectively bound IFNgR2. A 96-well plate was coated with IFNgR2 and PBS under the same conditions. Next, wells were blocked at 37° C. for 1 h. Then, 100 μl of extracted antibodies was added to each well and incubated for 1 h. Subsequently, 100 μl of anti-tag polyclonal antibody conjugated to HRP was added to each well and incubated at 37° C. for 1 h. Plates were developed with TMB substrate. The reaction was stopped by the addition of H2SO4. Absorbance at 450 nm was read on a microtiter plate reader. Antibodies with absorbance of the antigen-coated well at least threefold greater than PBS-coated control were considered to provide specific binding to IFNgR2. Positive clones were sequenced, and sequences analyzed to identify unique clonotypes
(ELISA stands for enzyme-linked immunosorbent assay.)

B1: DR928 (VHH)
VHH: QVQLVESGGGLVQAGGSLRLSCAASGRTFSNYRMGWFRQAPGKEREFVAAISRGGGTTLYADSVKGRFTISRDNAKNTVDLQMNRLKPEDTAVYFCAAGDFSTTWDEYNYWGQGTQVTVSS
For B1, the binding result in test [1] and in test [2] was “binds” each time.

B2: DR953 (VHH)
VHH: QVQLVESGGGLVQAGDSLRLSCAASGPTFSTYAMAWFRQAPGKEREFVAAITQSGRTTYYEDSVKGRFTISKDNAKNTLYLQMNSLQPEDTAVYYCAARDLWSDSPDDWRIYSFWGQGTQVTVSS
For B2, the binding result in test [1] and in test [2] was “binds” in each case.

B3: DR943 (VHH)
VHH: QVQLVESGGGLVQAGGSLRLSCVASGRTVGYGMAWFRQAPGKQRDVVAAITWSGTSTYYPDSVKGRFTISRDNAKNTMYLQMSSLKPEDTAVYYCAAGSRRRVGVDVGGYDYWGQGTQVTVSS
For the molecule B3, the binding result in test [1] and in test [2] was “binds” each time.

B4: DR956 (VHH)
VHH: EVQLVESGGGLVQAGGSLRLSCAASGRTFSSLAMAWFRQAPGKEREFVAATTILGGSADYGDPVKGRFTISRDNAKNTVYLQMNSLKPEDTAVYYCTGRRPAPSDNYWSPASYAYWGQGTQVTVSS
Turning to B4, the binding result in test [1] and in test [2] was “binds” each time.

B5: DR940 (VHH)
VHH: EVQLVESGGRLVQTGGSLRLSCAASGRTFSNYAMGWFRQAPGKEREFVAAISWYSGNTYYADSVKGRFTISRDNAKNTMYLQMNSLKPEDTAVYYCAANQIATMISVGDYWGQGTLVTVSS
For B5, the binding result in test [1] and in test [2] was “binds” each time.

B6: DR946 (VHH)
VHH: QVQLVESGGGLVQPGESLRLSCAASGPFTRYAMGWFRQAPGKEREFVAAISWSSGNTYYVDSVKGRFTISRDNAKNTMYLQMNSLKPEDTAVYYCAANEVATMSGPDDYWGQGTQVTVSS
Turning to B6, the binding result in test [1] and in test [2] was “binds” in each case.

B7: DR952 (VHH)
VHH: QVQLVESGGGLVQAGGFLRLSCAASGRTFSSLAMAWFRQAPGKEREFVAAISRSGGSTDYADSVKGRFTISRDNAKSTLYLQMSSLKPEDTAVYYCAARDYSTLQYYNEYEYSDWGQGTLVTVSS
B7: the binding result in test [1] and in test [2] was “binds” throughout.

B8: DR944 (VHH)
VHH: QVQLVESGGGLVQAGDSLRLSCAASGRTFTFSTHNMGWFRQAPGKEREFVGGIMWTSRASYADSVKGRFTVSRDNAKNTVYLQMNSLKPEDTAVYYCAAAWYGNSGASYDYWGQGTQVTVSS
B8: the binding result in test [1] and in test [2] was “binds” in each case.

B9: DR927 (VHH)
VHH: QVQLVESGGGLVQAGGSLRLSCAASGRTFTSYAMNWFRQAPGKEREFVAAISWSSGNTYVADSVKGRFAISRDKAKNTMYLQMNSLAPEDTAVYYCAATTIATMSDEYTYWGQGTQVTVSS
With B9, the binding result in test [1] and in test [2] was “binds” each time.

B10: DR947 (VHH)
VHH: QVQLVESGGGLVQAGGSLRLSCAASGGSFGRYTMGWYRQAPGKEREFVAVISWSGTNTYYADSVKGRFTISRDNAKNTMYLQMNDLKPEDTAVYYCAARETYYSHWDERMEYDYWGQGTQVTVSS
Turning to B10, the binding result in test [1] and in test [2] was “binds” each time.

B11: DR941 (VHH)
VHH: QVQLVESGGGLVEAGGSLRLACAASGSIFRLNLMGWYRQAPGKQRELVAHVGTTGNTAYADSVKGRFTISKDDAKNMVFLQMNSLKPEDTAVYYCYADRWGQFSWGQGTQVTVSS
On to B11, for which the binding result in test [1] and in test [2] was “binds” each time.

B12: DR948 (VHH)
VHH: QVQLVESGGGLVQAGDSLRLSCVASGSIDSSYYVSWFRQAPGKERDLVAAINWGDSRTAYADSVKGRFTISRDNAKNTVYLQMHSLRPNDTAVYYCASRIGLGGPVVAAPTRYPYWGQGTLVTVSS
Take B12: the binding result in test [1] and in test [2] was “binds” each time.

B13: DR954 (VHH)
VHH: QVQLVESGGGLVQAGGSLRLSCAAARRTLHNFAMAWFRQAPGKEREFVAAISKGGGSADYADSVKGRFTISRDNAKNTVYLQMNSLKPEDTAVYYCAANDLASYSDSSYTSTSRYDYWGQGTQVTVSS
As for B13, the binding result in test [1] and in test [2] was “binds” each time.

B14: DR939 (VHH)
VHH: EVQLVESGGGLVQAGGSMRLSCANSGRTFGTYAMGWFRQSPGKERERVASIDRDGSMSYYADSVKGRFTISGDNAKNTVYLQMNSLKPEDTAVYYCAASRRAVISLQTVDYWGQGTQVTVSS
Turning to B14, the binding result in test [2] is “binds”.

B15: DR951 (VHH)
VHH: QVQLVESGGGLVQAGGSLRLSCAASGRTFGTSFGSLSMGWFRQAPGKEREFVAAISRNIGRTYYADSVKDRFTISRDNAKNTASLQMNSLEPEDTAVYNCAATNSYDDLRRSYAYDYWGQGTQVTVSS
For B15, the binding result in test [1] and in test [2] was “binds” in each case.

B16: DR937 (VHH)
VHH: QVQLVESGGGLVQPGGSLRLSCAASGRTFRSYSMGWFRQAPGKEREFVAAISWYSGTTYYADPVKGRFTISRDDAKNTLYLQMNSLKPEDTAVYYCAANEIATMESSNDYWGQGTQVTVSS
For the molecule B16, the binding result in test [1] and in test [2] was “binds” each time.

B17: DR938 (VHH)
VHH: QVQLVESGGGLVQPGGSLRLSCTASGRPRTTYAMGWFRQAPGKEREIVAAISKAGGSTYVADSAKGRFAISKDNAKNTVYLQMNSLKPEDTAVYYCAARAGFAAQIFEYDYWGQGTLVTVSS
Consider B17, for which the binding result in test [1] and in test [2] was “binds” throughout.

B18: DR942 (VHH)
VHH: QVQLVESGGGLVQAGGSLRLSCVASGRTFTGYAMGWFRQAPGKEREFVAVITWSGATTYYSASVKGRFTLSRDNAKNTVYLQMNSLKSEDTAVYYCAIRIRDGVSPENPNEYGYWGQGTQVTVSS
Consider B18, for which the binding result in test [1] and in test [2] was “binds” each time.

B19: DR949 (VHH)
VHH: QVQLVESGGGLVQAGGSLRLSCAASESILRFNVMSWLRQAPGKQRELVAVITSGGSTNYADSVKGRFTISRDNAKNTVYLQMNSLKPEDTAVYYCAADESGQYYWGQGTQVTVSS
As to B19, the binding result in test [1] and in test [2] was “binds” in each case.

B20: DR950 (VHH)
VHH: QVQLVESGGGLVQAGGSLRLSCAASGLTTSSAALAWFRQAPGKERELDPTITSGGGSTYYADSVKGRFTISKDNAKNTLYLQMSSLKPEDTAVYYCAARFYSTTYYYREHEYSDWGQGTQVTVSS
Take B20: the binding result in test [1] and in test [2] was “binds” throughout.

B21: DR945 (VHH)
VHH: LVESGGGLVQLVQAGGSLRLSCAASGRTFSGYNMGWFRQAPGKEREFVAAIAWAGSRTYYTDSVKGRFTISRDNAKNTMYLQMNTLRPEDTAVYYCAAHDETYYRLDRVDLYTHWGQGTQVTVSS
As for B21, the binding result in test [1] and in test [2] was “binds” in each case.

B22: DR936 (VHH)
VHH: EVQLVESGGGLVQAGGSLRLSCAASGRTFSSVAMAWFRQAPGKEREFVSAISSGGGSTDYADSVKGRFTISKDNAKNTMYLQMDSLKPEDTAVYYCAARDYSSRRYYQSRYEYDLWGLGTQVTVSS
Turning to B22, the binding result in test [1] and in test [2] was “binds” in each case.

B23: DR955 (VHH)
VHH: QVQLVESGGGLVQTGGSLRLSCAASGRTFSSYAMAWFRQAPGKEREFVAAISILGGSADYEDSVQGRFTISRDNAKNTMYLQMNSLKPEDTAVYYCAARRPAPSDSYWSSTSYAYWGQGTLVTVSS
For the molecule B23, the binding result in test [1] and in test [2] was “binds” each time.

B24: DR929 (VHH)
VHH: QVQLVESGGGLVQAGGSLRLSCVASGRTFSSYAMGWFRQTPGKEREFVSAISRGGGSTDYADSVKGRFTISRDNAKNTVYLQMNNLKSEDTAVYYCALRAYSGRYYQFLEYDYWGQGTQVTVSS
For B24, the binding result in test [1] and in test [2] was “binds” throughout.
